Laboratory results reported in publication PMC4336473, “Role of L-alanine for redox self-sufficient amination of alcohols” (Microbial Cell Factories, 2015).

B1: TaCv (transaminase from Chromobacterium violaceum) (Chromobacterium violaceum ATCC 12472) (protein)
chain: MQKQRTTSQWRELDAAHHLHPFTDTASLNQAGARVMTRGEGVYLWDSEGNKIIDGMAGLWCVNVGYGRKDFAEAARRQMEELPFYNTFFKTTHPAVVELSSLLAEVTPAGFDRVFYTNSGSESVDTMIRMVRRYWDVQGKPEKKTLIGRWNGYHGSTIGGASLGGMKYMHEQGDLPIPGMAHIEQPWWYKHGKDMTPDEFGVVAARWLEEKILEIGADKVAAFVGEPIQGAGGVIVPPATYWPEIERICRKYDVLLVADEVICGFGRTGEWFGHQHFGFQPDLFTAAKGLSSGYLPIGAVFVGKRVAEGLIAGGDFNHGFTYSGHPVCAAVAHANVAALRDEGIVQRVKDDIGPYMQKRWRETFSRFEHVDDVRGVGMVQAFTLVKNKAKRELFPDFGEIGTLCRDIFFRNNLIMRACGDHIVSAPPLVMTRAEVDEMLAVAERCLEEFEQTLKARGLA
notes: full length, codon-optimized, untagged by primers (pTrc99A-taCv), E. coli W3110 crude extract
B2: TaVf (transaminase from Vibrio fluvialis) (Vibrio fluvialis) (protein)
chain: MNKPQSWEARAETYSLYGFTDMPSLHQRGTVVVTHGEGPYIVDVNGRRYLDANSGLWNMVAGFDHKGLIDAAKAQYERFPGYHAFFGRMSDQTVMLSEKLVEVSPFDSGRVFYTNSGSEANDTMVKMLWFLHAAEGKPQKRKILTRWNAYHGVTAVSASMTGKPYNSVFGLPLPGFVHLTCPHYWRYGEEGETEEQFVARLARELEETIQREGADTIAGFFAEPVMGAGGVIPPAKGYFQAILPILRKYDIPVISDEVICGFGRTGNTWGCVTYDFTPDAIISSKNLTAGFFPMGAVILGPELSKRLETAIEAIEEFPHGFTASGHPVGCAIALKAIDVVMNEGLAENVRRLAPRFEERLKHIAERPNIGEYRGIGFMWALEAVKDKASKTPFDGNLSVSERIANTCTDLGLICRPLGQSVVLCPPFILTEAQMDEMFDKLEKALDKVFAEVA
notes: full length, untagged by primers (pTrc99A-taVf), E. coli W3110 crude extract

Legend:
[1] = substrate: C[C@H](N)C(=O)O; test: HPLC of hexylamine formation, crude extract; type: biochemical, Chromobacterium violaceum; conditions: 10 mM hexanal as acceptor, potassium phosphate pH 7.4 (50 mM in results, 100 mM in methods), 37°C
Text: HPLC of hexylamine formation, crude extract on TaCv (transaminase from Chromobacterium violaceum)

[2] = substrate: C[C@H](N)C(=O)O; test: HPLC of hexylamine formation, crude extract; type: biochemical, Vibrio fluvialis; conditions: 10 mM hexanal as acceptor, potassium phosphate pH 7.4 (50 mM in results, 100 mM in methods), 37°C
Text: HPLC of hexylamine formation, crude extract on TaVf (transaminase from Vibrio fluvialis)

Row | Protein | Km [1] [mM] | Vmax [1] [µmol/min/mg] | Km [2] [mM] | Vmax [2] [µmol/min/mg]
1 | B1 | 35.00 ± 2.20 | 2 | – | –
2 | B2 | – | – | 20.00 ± 1.10 | 0.3
